Results published in paper PMC6319916 (Biochemistry, 2018).

T1: 3-hydroxy-3-methylglutaryl coenzyme A reductase (DaHMGR) (Delftia acidovorans, UniProt A9BQX8)
T1 sequence (A9BQX8 1-429): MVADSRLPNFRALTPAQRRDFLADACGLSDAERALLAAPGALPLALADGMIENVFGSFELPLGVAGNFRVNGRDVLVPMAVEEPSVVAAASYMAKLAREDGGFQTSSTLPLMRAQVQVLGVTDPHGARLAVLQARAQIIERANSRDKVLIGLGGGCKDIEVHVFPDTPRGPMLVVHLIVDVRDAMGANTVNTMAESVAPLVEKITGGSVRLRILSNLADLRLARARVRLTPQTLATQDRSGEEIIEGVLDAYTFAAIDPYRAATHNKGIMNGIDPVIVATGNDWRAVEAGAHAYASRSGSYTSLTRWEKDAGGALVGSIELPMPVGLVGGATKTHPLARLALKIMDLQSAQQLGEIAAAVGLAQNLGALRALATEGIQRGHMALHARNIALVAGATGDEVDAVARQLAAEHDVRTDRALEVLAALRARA


Experiments:
[1] = biological target: T1, 3-hydroxy-3-methylglutaryl coenzyme A reductase (DaHMGR); assay: X-ray crystal structure; type: binding
purified protein = substrate: CC(C)(COP(=O)(O)OP(=O)(O)OC[C@H]1O[C@@H](n2cnc3c(N)ncnc32)[C@H](O)[C@@H]1OP(=O)(O)O)[C@@H](O)C(=O)NCCC(=O)NCCSC(=O)C[C@@](C)(O)CC(=O)O; assay: purified protein; conditions: NADH

Molecule	X-ray crystal structure (1.49 Å) [1]	Km (purified protein) [µM]	kcat (purified protein) [s⁻¹]	kcat/Km (purified protein) [M⁻¹ s⁻¹]
C[C@@](O)(CCO)CC(=O)O [mevalonate]	in the mevalonate-bound DaHMGR structure, positive difference maps showed density in the active site, representing mevalonate binding	–	–	–
3-hydroxy-3-methylglutaryl coenzyme A reductase (DaHMGR) (Delftia acidovorans SPH-1) (protein) MVADSRLPNFRALTPAQRRDFLADACGLSDAERALLAAPGALPLALADGMIENVFGSFELPLGVAGNFRVNGRDVLVPMAVEEPSVVAAASYMAKLAREDGGFQTSSTLPLMRAQVQVLGVTDPHGARLAVLQARAQIIERANSRDKVLIGLGGGCKDIEVHVFPDTPRGPMLVVHLIVDVRDAMGANTVNTMAESVAPLVEKITGGSVRLRILSNLADLRLARARVRLTPQTLATQDRSGEEIIEGVLDAYTFAAIDPYRAATHNKGIMNGIDPVIVATGNDWRAVEAGAHAYASRSGSYTSLTRWEKDAGGALVGSIELPMPVGLVGGATKTHPLARLALKIMDLQSAQQLGEIAAAVGLAQNLGALRALATEGIQRGHMALHARNIALVAGATGDEVDAVARQLAAEHDVRTDRALEVLAALRARA	–	7.34 ± 0.71	22.3	3.04e+06
